Test [1] deals with T1, C3G full-length wild type (human, isoform a, residues 4-1077) (human) (UniProt Q13905).
T1 sequence: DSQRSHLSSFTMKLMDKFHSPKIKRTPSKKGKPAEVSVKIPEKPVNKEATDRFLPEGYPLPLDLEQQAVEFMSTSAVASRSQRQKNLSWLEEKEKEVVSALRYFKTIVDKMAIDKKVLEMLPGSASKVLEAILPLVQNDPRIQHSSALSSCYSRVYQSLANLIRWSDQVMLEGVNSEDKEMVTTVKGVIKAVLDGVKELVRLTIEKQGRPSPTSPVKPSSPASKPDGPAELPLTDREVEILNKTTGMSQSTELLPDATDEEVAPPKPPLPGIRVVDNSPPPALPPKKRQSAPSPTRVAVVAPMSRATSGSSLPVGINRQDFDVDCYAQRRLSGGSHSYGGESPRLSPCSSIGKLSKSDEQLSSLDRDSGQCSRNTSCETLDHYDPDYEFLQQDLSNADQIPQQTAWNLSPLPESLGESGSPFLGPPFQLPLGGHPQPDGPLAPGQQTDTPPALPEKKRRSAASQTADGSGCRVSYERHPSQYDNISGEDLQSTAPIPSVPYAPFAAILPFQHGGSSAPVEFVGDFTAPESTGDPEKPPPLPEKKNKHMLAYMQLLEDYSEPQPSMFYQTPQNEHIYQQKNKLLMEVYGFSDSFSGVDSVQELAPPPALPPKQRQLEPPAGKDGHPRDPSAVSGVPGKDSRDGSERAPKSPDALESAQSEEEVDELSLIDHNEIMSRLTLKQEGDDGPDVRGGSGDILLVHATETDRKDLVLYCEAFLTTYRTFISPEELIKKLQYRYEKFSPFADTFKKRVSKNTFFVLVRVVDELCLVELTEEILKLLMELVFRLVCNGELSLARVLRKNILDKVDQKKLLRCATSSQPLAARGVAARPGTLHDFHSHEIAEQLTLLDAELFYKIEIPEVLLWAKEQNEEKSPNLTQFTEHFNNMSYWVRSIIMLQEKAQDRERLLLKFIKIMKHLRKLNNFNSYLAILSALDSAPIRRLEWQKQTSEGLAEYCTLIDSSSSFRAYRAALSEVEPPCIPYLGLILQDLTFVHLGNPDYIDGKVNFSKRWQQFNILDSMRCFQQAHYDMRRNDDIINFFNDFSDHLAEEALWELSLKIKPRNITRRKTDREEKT

The target of test [2] is T2, Src-phosphorylated C3G (pC3G), wild type (human) (UniProt Q13905).
T2 sequence (chain, phosphotyrosines (phosphorylated in vitro by Src; sites not stated)): T1 sequence

Another test concerns the target C3G P1 P1 (Homo sapiens) (UniProt Q13905). The conditions noted are these: cited from earlier work.
Test [3] addresses the P1 (C3G-PAAA) and P2 (C3G-APAA) motifs. Description: ITC; single-PRM mutants of C3G in the cell titrated with full-length CrkL or CrkL-SH3N; 25 °C; 1:1 model in SEDPHAT; N is the competent fraction of C3G.

Sequence of CrkL, full-length (human) (P46109 whole entry): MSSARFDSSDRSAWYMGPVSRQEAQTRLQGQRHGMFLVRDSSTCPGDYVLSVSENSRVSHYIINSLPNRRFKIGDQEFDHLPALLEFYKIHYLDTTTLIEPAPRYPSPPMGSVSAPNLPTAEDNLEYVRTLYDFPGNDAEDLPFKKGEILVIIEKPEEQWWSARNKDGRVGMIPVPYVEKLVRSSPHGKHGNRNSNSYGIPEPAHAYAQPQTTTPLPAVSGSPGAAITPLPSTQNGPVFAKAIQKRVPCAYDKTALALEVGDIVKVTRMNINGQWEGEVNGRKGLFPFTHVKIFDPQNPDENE
Sequence of CrkL (P46109 whole entry): as above

As to “CrkL-II-L chimera (from UniProt P46109 1-124; P46108-1 134-191; P46109 183-303)”, in test [1], the AC50 of the dose-response activation of the GEF activity of C3G (1 µM) on Rap1b:mant-dGDP is 16.7 µM and the kmax of the dose-response activation of the GEF activity of C3G (1 µM) on Rap1b:mant-dGDP worked out at 7900 M⁻¹ s⁻¹. In test [2], this substance returned an AC50 of the dose-response activation of the GEF activity of pC3G (0.2 µM) on Rap1b:mant-dGDP of 2.3 µM and a kmax of the dose-response activation of the GEF activity of pC3G (0.2 µM) on Rap1b:mant-dGDP of 0.0336 s^-1 µM^-1.

In general, Kd refers to the constant that tells how readily two partners part at equilibrium. CrkL (from UniProt P46109): the Kd with C3G P1 P1 (Homo sapiens) was 2.8 µM.

Consider “CrkII-L-II chimera (from UniProt P46108-1 1-133; P46109 125-182; P46108-1 191-304)”, for which, in test [1], the AC50 of the dose-response activation of the GEF activity of C3G (1 µM) on Rap1b:mant-dGDP amounted to 18.7 µM and the kmax of the dose-response activation of the GEF activity of C3G (1 µM) on Rap1b:mant-dGDP turned out to be 7900 M⁻¹ s⁻¹. Also, in test [2], the AC50 of the dose-response activation of the GEF activity of pC3G (0.2 µM) on Rap1b:mant-dGDP turned out to be 1.6 µM and the kmax of the dose-response activation of the GEF activity of pC3G (0.2 µM) on Rap1b:mant-dGDP was found to be 0.03 s^-1 µM^-1.

Broadly, the stoichiometry N is the number of molecules, sites or subunits per partner or assembly. As to “CrkL, full-length (human) (from UniProt P46109 1-303) (natural protein)”, the stoichiometry N in test [3] was 0.8 to 0.9.

The values above are taken from PMC9896810.
